4 molecules from patent publication US20210253639A1 (REGENTS OF THE UNIVERSITY OF MICHIGAN, published 2021) can be followed below.

Ends that are not written are not given here. E3 = triethyleneglycol (PEG3) linker; Cy5.5 = cyanine 5.5 fluorophore

For assay [1], the target named is T1, epidermal receptor growth factor 2 (ErbB2) (human, UniProt P04626 23-1255).
T1 construct: whole, on cells; Receptor on human cancer cell lines or xenograft tumour cells; also called HER2; HER2/neu
The assay is described as follows: flow cytometry on OE33 cells (carry EGFR and ErbB2), apparent dissociation constant.

Assay [2] deals with T1, epidermal receptor growth factor 2 …. The assay is described as follows: confocal microscopy of FITC-labeled peptides on Flo1-HER2 cells. As to the method: A FITC label was attached to each peptide, and binding to Flo1-HER2 and QhTERT cells (control) was imaged using confocal microscopy. […] KSPNPRF (SEQ ID NO: 2) was selected based on the highest mean fluorescence intensity with binding to Flo1-HER2. From the model, this peptide was determined to bind to HER2 domain 3. The peptide was then labeled for deep tissue imaging with a Cy5.5 fluorophore via a GGGSK (SEQ ID NO: 3) linker on the C-terminus, hereafter KSP*-Cy5.5. Cy5.5 was chosen for high quantum yield and photostability. The linker prevents steric hindrance by spatially separating the fluorophore from the peptide. A scrambled sequence PPSNFKR (SEQ ID NO: 4) was developed for use as control by altering the conformationally rigid spacer PNP and moving both hydrophobic and hydrophilic amino acids at the C-terminus. This control peptide also was linked to Cy5.5 via GGGSK (SEQ ID NO: 3), hereafter PPS*-Cy5.5. […] The fluorescence emission peak occurs at 708 nm in the NIR spectrum.

Assay [3] concerns the target EGFR and ErbB2 together on the surface of cells that express both (OE33, SKBr3) (human) (UniProt P00533). The assay is described as follows: flow cytometry on OE33 cells, against QRH*-Cy5.5 and KSP*-Cy5.5.
For assay [4] the target is unchanged. The assay is described as follows: confocal microscopy on OE33 cells, against QRH*-Cy5.5 and KSP*-Cy5.5.
The target is the same in assay [5]. Description: flow cytometry on OE33 cells, apparent dissociation constant. A general note: A flow cytometer gives signals particle by particle.
For assay [6] the target is unchanged. Description: flow cytometry time course on OE33 cells, 1 µM peptide, first-order fit.
For assay [7], the target named is T2, epidermal growth factor receptor (EGFR) (human, UniProt P00533 25-1210).
T2 construct: whole, on cells; Endogenous receptor on human cancer cell lines or xenograft tumour cells; also called ErbB-1; HER1
The assay is described as follows: flow cytometry on OE33 cells (carry EGFR and ErbB2), apparent dissociation constant.

B1: KSP*-Cy5.5 (peptide)
peptide: KSPNPRFGGGSK(Cy5.5)-NH2
notes: also called KSP*-GGGSK-Cy5.5; ErbB2 monomer peptide
For the molecule B1, in assay [1], the Kd stood at 54 nM.

On to KSPNPRF (also: FITC label, attachment not given here) [KSPNPRF with a FITC label], for which the binding result in assay [2] is “binds”.

B2: QRH*-KSP*-E3-Cy5.5 (peptide)
peptide 1: QRHKPRE-E3
peptide 2: KSPNPRF-E3
modifications: not fully specified (bridges); also: heterodimer: both C-termini joined via E3 to alpha and epsilon amines of a Lys, followed by Lys carrying Cy5.5
Regarding B2, the fold improved binding affinity compared with either monomer alone in assay [3] worked out at 2 fold. In assay [4], this molecule gave a fold greater fluorescence intensity compared with either monomer alone of 3 fold. Further, the Kd in assay [5] was found to be 23 nM. In addition, in assay [6], the apparent association time constant Ka came out at 0.22 min⁻¹ and the association time (printed in brackets after Ka) came to 4.5 min.

B3: QRH*-Cy5.5 (peptide)
peptide: QRHKPREGGGSK(Cy5.5)-NH2
notes: also called QRH*-GGGSK-Cy5.5; EGFR monomer peptide
Take B3: the Kd in assay [7] was 98 nM.
